Measured values as given in publication PMC9569990 (International Journal of Molecular Sciences, 2022).

T1: Interleukin-35 (human, UniProt P29459 23-219; Q14213 21-229)
T1 construct: the chain used for the SCOP family assignment; also called IL-35; source: bought: PeproTech (source HEK293)
T1 sequence (looked up) 1: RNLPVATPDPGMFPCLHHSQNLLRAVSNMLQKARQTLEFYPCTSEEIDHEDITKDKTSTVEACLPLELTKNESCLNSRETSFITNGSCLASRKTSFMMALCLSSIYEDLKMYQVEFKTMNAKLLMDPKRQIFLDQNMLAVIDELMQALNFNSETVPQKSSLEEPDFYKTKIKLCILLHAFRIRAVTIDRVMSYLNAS
T1 sequence (looked up) 2: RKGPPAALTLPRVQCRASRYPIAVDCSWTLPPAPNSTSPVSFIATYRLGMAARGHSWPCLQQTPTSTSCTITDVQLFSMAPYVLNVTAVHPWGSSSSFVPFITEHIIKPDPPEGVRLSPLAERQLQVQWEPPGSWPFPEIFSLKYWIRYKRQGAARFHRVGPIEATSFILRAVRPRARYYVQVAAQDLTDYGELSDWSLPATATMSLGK

T2: Prolactin (human, UniProt P01236 29-227)
T2 construct: Prolactin, human, UniProt P01236; see the manufacturer's catalogue number; also called PRL; source: bought: PeproTech (source E. coli)
T2 sequence (looked up): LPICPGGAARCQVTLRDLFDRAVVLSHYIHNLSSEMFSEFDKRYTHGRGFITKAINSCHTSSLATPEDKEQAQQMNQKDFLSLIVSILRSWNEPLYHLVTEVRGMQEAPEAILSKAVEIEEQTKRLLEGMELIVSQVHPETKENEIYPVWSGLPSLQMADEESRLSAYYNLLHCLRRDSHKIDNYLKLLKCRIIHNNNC

T3: Interleukin-31 (human, UniProt Q6EBC2 24-164)
T3 construct: Interleukin-31, human, UniProt Q6EBC2; see the manufacturer's catalogue number; also called IL-31; source: bought: PeproTech (source E. coli)
T3 sequence (looked up): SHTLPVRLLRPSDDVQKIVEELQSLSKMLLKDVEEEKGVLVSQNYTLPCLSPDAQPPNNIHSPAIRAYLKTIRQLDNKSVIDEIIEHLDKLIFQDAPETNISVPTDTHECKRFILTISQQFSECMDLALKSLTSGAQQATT


Key:
Assay in all cases: SPR; cytokine immobilised on ProteOn GLH sensor chip by amine coupling (9,000-14,000 RU); S100P (wild type or mutant) as analyte, 62 nM-16 µM; 25 °C; 10 mM HEPES, 150 mM NaCl, 1 mM CaCl2, 0.05% TWEEN 20, pH 7.4; heterogeneous ligand model (two ligand populations), one-site model for IL-13; values averaged over analyte concentrations (n = 3-5)
Conditions in all cases: both partners purified
Interleukin-35 = biological target: T1, Interleukin-35
Interleukin-15 = biological target: T4, Interleukin-15 (human, UniProt P40933 49-162)
T4 construct: Interleukin-15, human, UniProt P40933; see the manufacturer's catalogue number; also called IL-15; source: bought: PeproTech (source E. coli)
T4 sequence (P40933 49-162): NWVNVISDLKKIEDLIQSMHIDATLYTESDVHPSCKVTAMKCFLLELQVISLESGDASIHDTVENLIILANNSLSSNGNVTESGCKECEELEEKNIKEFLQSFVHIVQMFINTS

Prolactin = biological target: T2, Prolactin
Interleukin-10 = biological target: T5, Interleukin-10 (human, UniProt P22301 19-178)
T5 construct: Interleukin-10, human, UniProt P22301; see the manufacturer's catalogue number; also called IL-10; source: bought: PeproTech (source E. coli)
T5 sequence (P22301 19-178): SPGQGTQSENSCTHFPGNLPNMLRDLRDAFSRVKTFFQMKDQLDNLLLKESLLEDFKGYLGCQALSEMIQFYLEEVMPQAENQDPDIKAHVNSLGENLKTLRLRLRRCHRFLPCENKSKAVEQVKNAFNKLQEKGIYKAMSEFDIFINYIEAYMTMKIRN

Interleukin-31 = biological target: T3, Interleukin-31
Growth hormone variant = biological target: T6, Growth hormone variant (human, UniProt P01242 27-217)
T6 construct: Growth hormone variant, human, UniProt P01242; see the manufacturer's catalogue number; also called GH-V; source: bought: R&D Systems (source E. coli)
T6 sequence (P01242 27-217, change not shown): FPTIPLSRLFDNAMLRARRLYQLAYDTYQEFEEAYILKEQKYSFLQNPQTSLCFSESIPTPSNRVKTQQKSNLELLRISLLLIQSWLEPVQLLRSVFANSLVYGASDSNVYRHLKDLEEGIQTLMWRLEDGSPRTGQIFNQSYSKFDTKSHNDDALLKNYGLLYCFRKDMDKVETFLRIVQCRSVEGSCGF

Interleukin-13 = biological target: T7, Interleukin-13 (human, UniProt P35225 25-146)
T7 construct: Interleukin-13, human, UniProt P35225; see the manufacturer's catalogue number; also called IL-13; source: bought: PeproTech (source E. coli)
T7 sequence (P35225 25-146): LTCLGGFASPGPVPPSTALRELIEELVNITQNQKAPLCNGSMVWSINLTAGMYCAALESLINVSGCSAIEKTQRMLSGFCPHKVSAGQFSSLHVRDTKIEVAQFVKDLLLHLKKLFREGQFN

Kd (Interleukin-35) [µM] | Kd (Interleukin-15) [µM] | Kd (Prolactin) [µM] | Kd (Interleukin-10) [µM] | Kd (Interleukin-31) [µM] | Kd (Growth hormone variant) [µM] | Kd (Interleukin-13) [µM] | Kd1 (heterogeneous ligand model, population 1) (Interleukin-15) [nM] | Kd2 (heterogeneous ligand model, population 2; column head printed as Kd1) (Interleukin-15) [nM] | Kd1 (heterogeneous ligand model, population 1) (Prolactin) [nM] | Kd2 (heterogeneous ligand model, population 2; column head printed as Kd1) (Prolactin) [µM] | Kd1 (heterogeneous ligand model, population 1) (Interleukin-10) [µM] | Kd2 (heterogeneous ligand model, population 2; column head printed as Kd1) (Interleukin-10) [µM] | Kd1 (heterogeneous ligand model, population 1) (Interleukin-31) [nM] | Kd2 (heterogeneous ligand model, population 2; column head printed as Kd1) (Interleukin-31) [µM] | Binder
> 10 | > 100 | > 100 | > 100 | > 100 | > 100 | > 100 | – | – | – | – | – | – | – | – | Human S100P mutant Δ42–47 (lacks PGFLQS sequence in the 'hinge') (natural protein, S100P protein, human, recombinant, with residues 42-47 (PGFLQS) deleted; source: E. coli, prepared as previously described [28]) MTELETAMGMIIDVFSRYSGSEGSTQTLTKGELKVLMEKELGKDKDAVDKLLKDLDANGDAQVDFSEFIVFVAAITSACHKYFEKAGLK
> 100 | – | – | – | – | > 100 | > 100 | 157 | 283 | 689 | 3.12 | 4.74 | 6.05 | 202 | 1.18 | Human S100P mutant F89A (natural protein, S100P protein, human, recombinant, with F89A; source: E. coli, prepared as previously described [28]) MTELETAMGMIIDVFSRYSGSEGSTQTLTKGELKVLMEKELPGFLQSGKDKDAVDKLLKDLDANGDAQVDFSEFIVFVAAITSACHKYAEKAGLK
